Assay results: publication PMC5452337

What was measured:
Assay in all cases: co-IP; lysates of CHO GABABR1b/R2 cells transiently expressing KCC2-GFP constructs or GFP, CHAPS buffer; anti-GFP as the precipitating antibody; blots probed for GABABR1 (quantified against FL-KCC2 = 100%) or transferrin receptor
[1] = molecular target: KCC2 deletion mutant NTD + TMD fused to GFP (rat)
[2] = molecular target: KCC2 transmembrane domain (TMD) fused to GFP (rat)
[3] = molecular target: KCC2 deletion mutant TMD + CTD fused to GFP (rat)
Sequence of KCC2 deletion mutant TMD + CTD fused to GFP (rat) (Q63633 whole entry, stated change not applied, the tested form may be a part): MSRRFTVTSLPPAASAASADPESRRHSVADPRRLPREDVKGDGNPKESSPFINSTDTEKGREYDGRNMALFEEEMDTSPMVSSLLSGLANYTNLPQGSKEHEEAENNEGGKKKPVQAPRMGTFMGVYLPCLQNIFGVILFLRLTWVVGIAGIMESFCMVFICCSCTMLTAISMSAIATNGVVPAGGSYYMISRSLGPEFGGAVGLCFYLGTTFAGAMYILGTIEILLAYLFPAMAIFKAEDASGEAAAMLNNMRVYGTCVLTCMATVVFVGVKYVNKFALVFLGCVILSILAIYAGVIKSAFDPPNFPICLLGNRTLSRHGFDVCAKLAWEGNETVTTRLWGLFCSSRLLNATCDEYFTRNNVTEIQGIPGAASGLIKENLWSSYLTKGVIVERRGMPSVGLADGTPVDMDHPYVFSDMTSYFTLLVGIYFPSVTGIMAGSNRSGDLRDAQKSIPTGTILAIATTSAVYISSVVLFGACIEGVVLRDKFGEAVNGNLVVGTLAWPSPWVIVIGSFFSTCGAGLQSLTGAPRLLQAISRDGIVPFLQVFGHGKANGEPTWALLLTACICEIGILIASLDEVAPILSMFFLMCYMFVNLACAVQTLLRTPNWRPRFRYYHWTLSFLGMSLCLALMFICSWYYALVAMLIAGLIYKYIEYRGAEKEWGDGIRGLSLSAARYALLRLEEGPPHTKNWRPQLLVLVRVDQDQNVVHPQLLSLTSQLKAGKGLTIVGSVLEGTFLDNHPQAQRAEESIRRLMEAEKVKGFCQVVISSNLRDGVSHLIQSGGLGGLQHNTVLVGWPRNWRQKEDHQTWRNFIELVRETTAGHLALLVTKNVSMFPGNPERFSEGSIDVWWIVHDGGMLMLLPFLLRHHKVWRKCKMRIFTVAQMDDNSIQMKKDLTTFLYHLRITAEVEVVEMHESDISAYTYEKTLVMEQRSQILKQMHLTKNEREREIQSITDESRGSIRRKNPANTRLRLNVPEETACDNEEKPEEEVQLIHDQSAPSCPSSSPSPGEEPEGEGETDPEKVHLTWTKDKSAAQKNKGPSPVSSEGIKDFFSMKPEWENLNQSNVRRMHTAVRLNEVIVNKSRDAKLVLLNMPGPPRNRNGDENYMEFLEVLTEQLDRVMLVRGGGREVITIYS

Sequence of KCC2 deletion mutant NTD + TMD fused to GFP (rat) (Q63633 1-640, stated change not applied): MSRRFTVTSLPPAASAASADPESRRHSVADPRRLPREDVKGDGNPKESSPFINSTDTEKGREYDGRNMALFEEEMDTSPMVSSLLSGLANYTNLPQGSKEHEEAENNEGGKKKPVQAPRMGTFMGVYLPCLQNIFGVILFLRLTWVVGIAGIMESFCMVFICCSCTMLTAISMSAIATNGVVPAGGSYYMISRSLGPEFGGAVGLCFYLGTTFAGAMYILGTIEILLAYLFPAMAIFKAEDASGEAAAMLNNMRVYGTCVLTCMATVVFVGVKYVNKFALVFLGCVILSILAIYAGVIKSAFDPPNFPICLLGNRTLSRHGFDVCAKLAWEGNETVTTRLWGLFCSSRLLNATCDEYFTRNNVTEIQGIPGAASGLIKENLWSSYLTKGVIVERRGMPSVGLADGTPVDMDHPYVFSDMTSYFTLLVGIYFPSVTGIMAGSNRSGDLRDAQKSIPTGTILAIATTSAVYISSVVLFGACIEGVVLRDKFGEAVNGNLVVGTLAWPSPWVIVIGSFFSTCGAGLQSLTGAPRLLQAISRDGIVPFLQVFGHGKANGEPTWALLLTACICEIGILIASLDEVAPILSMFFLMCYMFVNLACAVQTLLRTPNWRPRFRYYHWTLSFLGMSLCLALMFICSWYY
Sequence of KCC2 transmembrane domain (TMD) fused to GFP (rat) (Q63633 97-640): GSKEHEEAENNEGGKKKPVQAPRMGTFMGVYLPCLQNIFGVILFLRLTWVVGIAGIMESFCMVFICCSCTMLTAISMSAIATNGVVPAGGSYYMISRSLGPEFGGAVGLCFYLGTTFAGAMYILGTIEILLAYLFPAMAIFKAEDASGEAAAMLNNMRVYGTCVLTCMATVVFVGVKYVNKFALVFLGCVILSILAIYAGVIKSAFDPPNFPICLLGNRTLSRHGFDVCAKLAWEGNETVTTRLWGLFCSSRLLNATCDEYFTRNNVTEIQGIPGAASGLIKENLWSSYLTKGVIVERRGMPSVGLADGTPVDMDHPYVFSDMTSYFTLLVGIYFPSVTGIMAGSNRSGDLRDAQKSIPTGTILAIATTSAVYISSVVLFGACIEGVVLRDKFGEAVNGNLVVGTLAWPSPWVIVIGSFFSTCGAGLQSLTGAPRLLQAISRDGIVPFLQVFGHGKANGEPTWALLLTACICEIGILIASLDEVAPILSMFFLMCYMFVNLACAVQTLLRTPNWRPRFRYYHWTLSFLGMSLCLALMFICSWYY

- relative amount of GABABR detected after isolation with the GFP antibody (FL-KCC2 = 100%) [1]: 68 % of FL-KCC2
- relative amount of GABABR detected after isolation with the GFP antibody (FL-KCC2 = 100%) [2]: 76 % of FL-KCC2
- relative amount of GABABR detected after isolation with the GFP antibody (FL-KCC2 = 100%) [3]: 36 % of FL-KCC2
Substance: GABAB receptor of rat GABABR1b and GABABR2, stably expressed in CHO cells (from UniProt Q9Z0U4-2 20-960; O88871 41-940) (complex)
